Experimental data published in patent US20070178101A1.

Legend:
[1] = biological target: Ovr110-HA on stably transfected mouse LMTK cells (human) (UniProt Q7Z7D3); experiment: FACS on Ovr110-HA transfected mouse LMTK cells, secondary antibody alone
[2] = biological target: Ovr110-HA on stably transfected mouse LMTK cells (human) (UniProt Q7Z7D3); experiment: FACS on Ovr110-HA transfected mouse LMTK cells, secondary antibody alone, gate I

Mean of Fluorescence [1]: 0.48
Percentage of cells [2]: 0.6
Substance: Donkey Anti-Mouse Ig-PE (antibody)
